These results are taken from PMC12135187, “A role for pH dynamics regulating transcription factor DNA-binding selectivity”.

What all share (conditions): protein: recombinant; tags: N-terminal GST (pGEX-6P-2); label: 6-FAM; blunt
Series [1] concerns the target T1, FOXC2 DBD H122K (UniProt Q99958 72-172, H122K).
T1 sequence: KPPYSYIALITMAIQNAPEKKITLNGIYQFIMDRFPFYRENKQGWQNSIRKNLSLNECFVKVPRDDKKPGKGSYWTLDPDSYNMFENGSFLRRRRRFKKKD
In words: fluorescence anisotropy; pH 7.5; 20 mM HEPES, 140 mM KCl, 0.05 mM TCEP-HCl, pH 7.0 or 7.5 (pH titration 6.8-8.2), room temperature 30 min, 7.5 nM FAM-DNA. For orientation: In fluorescence polarisation assays a small probe gives low polarisation when free and higher when bound to something large.

For a further series, the target named is T2, FOXC2 DBD WT (UniProt Q99958 72-172).
T2 sequence: T1 sequence with K51H
The experiment in a line: fluorescence anisotropy; pH 7.0; higher affinity than at pH 7.5; 20 mM HEPES, 140 mM KCl, 0.05 mM TCEP-HCl, pH 7.0 or 7.5 (pH titration 6.8-8.2), room temperature 30 min, 7.5 nM FAM-DNA.

For a further series, the target named is T3, FOXN1 DBD WT (UniProt O15353 270-366).
T3 sequence: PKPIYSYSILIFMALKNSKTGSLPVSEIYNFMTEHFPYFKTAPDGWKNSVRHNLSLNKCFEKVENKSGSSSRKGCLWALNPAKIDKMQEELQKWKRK
The series is described as above.

The next series concerns the target T4, FOXM1 DBD WT (UniProt Q08050 222-360).
T4 sequence: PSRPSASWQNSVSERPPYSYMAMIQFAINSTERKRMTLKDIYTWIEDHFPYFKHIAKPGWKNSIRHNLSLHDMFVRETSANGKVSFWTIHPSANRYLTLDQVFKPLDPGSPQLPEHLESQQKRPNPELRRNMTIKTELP
Described as above.

Series [2] has as its target T5, FOXC2 DBD H122N (UniProt Q99958 72-172, H122N).
T5 sequence: T1 sequence with K51N
The experiment in a line: fluorescence anisotropy; pH 7.0; 20 mM HEPES, 140 mM KCl, 0.05 mM TCEP-HCl, pH 7.0 or 7.5 (pH titration 6.8-8.2), room temperature 30 min, 7.5 nM FAM-DNA.

The target of series [3] is T1, FOXC2 DBD H122K. The series is described as above.
The target of series [4] is T6, FOXM1 DBD H287K (UniProt Q08050 222-360, H287K).
T6 sequence: T4 sequence with H66K
Described as above.

Series [5] has as its target T5, FOXC2 DBD H122N. In words: fluorescence anisotropy; pH 7.5; similar to WT at pH 7.5; 20 mM HEPES, 140 mM KCl, 0.05 mM TCEP-HCl, pH 7.0 or 7.5 (pH titration 6.8-8.2), room temperature 30 min, 7.5 nM FAM-DNA.
Series [6] deals with T6, FOXM1 DBD H287K. The experiment in a line: fluorescence anisotropy; pH 7.5; 20 mM HEPES, 140 mM KCl, 0.05 mM TCEP-HCl, pH 7.0 or 7.5 (pH titration 6.8-8.2), room temperature 30 min, 7.5 nM FAM-DNA.

Substitutions are numbered along the chain they refer to.

B1: FkhP (dsDNA)
DNA 1: CCATAAACAAC
DNA 2: GTTGTTTATGG
For the molecule B1, the Ka with FOXC2 DBD H122K [1] was 0.91 ± 0.08 μM (as printed; KA = 1/KD, so presumably μM^-1); with FOXC2 DBD H122N [2] it was 0.14 ± 0.03 μM (as printed; KA = 1/KD, so presumably μM^-1); in the series with FOXC2 DBD H122K [3] it was 0.86 ± 0.15 μM (as printed; KA = 1/KD, so presumably μM^-1); with FOXM1 DBD H287K [4] it was 4.1 ± 0.81 μM (as printed; KA = 1/KD, so presumably μM^-1); with FOXC2 DBD H122N [5], 0.1 ± 0.01 μM (as printed; KA = 1/KD, so presumably μM^-1); in the series with FOXM1 DBD H287K [6], 1.8 ± 0.27 μM (as printed; KA = 1/KD, so presumably μM^-1). The binding result with FOXC2 DBD WT, with FOXN1 DBD WT and with FOXM1 DBD WT was “binds” in each case.
